Experimental data taken from publication PMC11629065.

B1: IL33_(112–270) (ABNOVA) (ligand)
chain: SITGISPITEYLASLSTYNDQSITFALEDESYEIYVEDLKKDEKKDKVLLSYYESQHPSNESGDGVDGKMLMVTLSPTKDFWLHANNKEHSVELHKCEKPLPDQAFFVLHNMHSNCVSFECKTDPGVFIGVKDNHLALIKVDSSENLCTENILFKLSET
B2: IL33_(109–270) (ligand)
chain: HDSSITGISPITEYLASLSTYNDQSITFALEDESYEIYVEDLKKDEKKDKVLLSYYESQHPSNESGDGVDGKMLMVTLSPTKDFWLHANNKEHSVELHKCEKPLPDQAFFVLHNMHSNCVSFECKTDPGVFIGVKDNHLALIKVDSSENLCTENILFKLSET
B3: IL33_(113–270) (ligand)
chain: ITGISPITEYLASLSTYNDQSITFALEDESYEIYVEDLKKDEKKDKVLLSYYESQHPSNESGDGVDGKMLMVTLSPTKDFWLHANNKEHSVELHKCEKPLPDQAFFVLHNMHSNCVSFECKTDPGVFIGVKDNHLALIKVDSSENLCTENILFKLSET
B4: IL33_(95–270) (ligand)
chain: AFGISGVQKYTRALHDSSITGISPITEYLASLSTYNDQSITFALEDESYEIYVEDLKKDEKKDKVLLSYYESQHPSNESGDGVDGKMLMVTLSPTKDFWLHANNKEHSVELHKCEKPLPDQAFFVLHNMHSNCVSFECKTDPGVFIGVKDNHLALIKVDSSENLCTENILFKLSET
B5: IL33_(99–270) (ligand)
chain: SGVQKYTRALHDSSITGISPITEYLASLSTYNDQSITFALEDESYEIYVEDLKKDEKKDKVLLSYYESQHPSNESGDGVDGKMLMVTLSPTKDFWLHANNKEHSVELHKCEKPLPDQAFFVLHNMHSNCVSFECKTDPGVFIGVKDNHLALIKVDSSENLCTENILFKLSET

Tests used:
[1] = molecular target: IL1RL1 with the extracellular risk allele (rs1041973 [C]) and the TIR signalling domain risk haplotype (rs10192157 [C]) (human) (UniProt Q01638)
[2] = molecular target: IL1RL1 with the extracellular risk allele (rs1041973 [C]) and the protective TIR signalling domain haplotype (rs10192157 [T]) (human) (UniProt Q01638)
[3] = molecular target: IL1RL1 with the extracellular risk allele (rs1041973 [C]) and the TIR signalling domain risk haplotype (rs10192157 [C]) (human) (UniProt Q01638); remark: listed apart in the source

Molecule	IL8 in supernatant (ELISA) of HEK293 reporter cells transfected with IL1RL1; maximum as told in the text (differs from the table's cell) [1] [pg/mL]	SEAP EC50 Risk:Prot (NF-κB SEAP reporter, transfected HEK293) [2] [pM]	IL8 EC50 (IL8 ELISA of supernatant, transfected HEK293, risk:risk haplotype) [3] [pM]	IL8 in supernatant (ELISA) of HEK293 reporter cells transfected with IL1RL1, IL33 0.0001-50 ng/mL, 24 h; IL8 ELISA maximum [3] [pg/µL]	SEAP EC50 Risk:Risk (NF-κB SEAP reporter, transfected HEK293) [3] [pM]	SEAP activity (NF-κB reporter) in supernatant of HEK293 reporter cells transfected with IL1RL1, IL33 0.0001-50 ng/mL, 24 h; SEAP maximum (OD) [3] [OD]
IL33 Exon 3,4 deletion variant (IL33_(Δ3,4)) (ligand)	28.1	46.6	1500	28.1	22.1	2.47
B1	–	200	69.8	24.6	46.2	3.28
B2	–	71.2	1.17	24.6	14.7	3.07
B3	–	188	1580	37.8	13.5	2.6
B4	–	42.7	0.74	49.7	6.99	3.79
B5	–	90.6	29000	42.9	29.2	3.58
